Experimental data: the supplement of paper PMC10567573

B1: RSPH3 (parent)
chain: LELQRQREARKRALARKQAQEQLR
B2: BCL2L13 (parent)
chain: QSLDQEILLKVKTEIEEELKSLDK

Variants of: B1
Experiment: protein stability index of a GFP-peptide fusion (GPS, HEK-293T) (PSI 1-6); higher = more stable
Details: c terminus: a fixed tail appended
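Also: lentivirally expressed fusions sorted by FACS into six bins by GFP to DsRed ratio, PSI derived from sequencing read proportions per bin multiplied by bin number.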

Protein stability index: each site, then its substitutions
Q6: E 4.46 | F 3.35 | L 3.33 | N 3.73 | D 4.05 | H 2.96 | K 4.63 | M 2.92 | C 3.17 | A 4.14
A9: T 3.31 | L 3.47 | Q 3.32 | H 4.07 | G 4.04 | D 3.63 | P 4 | W 2.86 | Y 3.71 | R 4.11
K17: N 4.45 | R 4.38 | T 4.43 | A 4.1 | Q 4.15 | F 3.95 | E 4.69 | S 4.21 | L 3.97 | W 3.44
R12: E 4.71 | M 4.18 | N 4.45 | C 3.9 | W 3.21 | T 3.79 | L 3.22 | Q 4.33 | S 3.81
E21: V 3.31 | F 2.93 | Q 3.23 | M 3.75 | K 4.28 | A 2.72 | R 3.99 | P 3.45 | T 3.81 | I 3.33 | C 3.01 | N 3.87 | L 3.48
Q18: G 3.4 | F 3.53 | Y 2.81 | M 3.46 | S 3.38 | R 3.64 | C 2.81 | E 3.86 | A 3.12 | I 2.33
L3: Y 3.89 | H 4.42 | T 4.35 | N 3.86 | D 4.14 | A 4.14 | C 3.12 | E 5.04 | I 3.74 | P 4.18
L14: K 3.46 | M 3.32 | I 3.67 | C 3.74 | D 4.66 | S 4.42 | Y 3.22 | Q 4.53 | P 4.39 | R 4.4 | H 4.32
R24: A 3.97 | S 3.8 | H 3.85 | V 4.43 | L 3.18 | Q 4.54 | Y 3.16 | C 4.13 | G 4.13 | T 3.82
R10: C 3.43 | F 3.52 | Q 4.43 | E 4.08 | K 3.07 | M 3.76 | W 3.53 | L 3.62 | D 4.38
R7: G 4.52 | Q 4.01 | S 4.36 | D 4.49 | C 3.87 | T 4.43 | L 4.2 | V 4.02 | E 4.31
Q22: K 3.77 | C 3.11 | M 2.92 | L 3.63 | G 4.22 | N 4.14 | F 3.04 | R 3.93 | P 3.79 | D 4.29 | T 3.16 | A 4.19 | H 2.95
A13: E 4.5 | Q 4.45 | P 4.14 | S 3.77 | Y 3.49 | L 3.35 | W 3.73 | K 3.36 | T 3.85 | M 3.29 | F 3.39
L23: A 4.96 | G 4.78 | H 4.25 | D 4.42 | S 3.78 | P 3.78 | K 3.83 | F 3.96 | E 4.59 | N 3.92
K11: C 2.94 | Q 4.35 | N 3.8 | E 4.35 | P 3.82 | S 4.11 | F 3.46 | T 3.46 | A 3.84 | W 2.92 | Y 3.07
R5: A 5.05 | I 3.77 | P 3.89 | V 4.36 | C 4.09 | H 4.21 | D 4.27 | Q 4.32 | F 3.91 | G 4.34 | K 4.25
E2: R 3.57 | F 2.56 | S 3.56 | H 3 | Y 2.52 | L 2.6 | Q 3.93 | M 2.92
Q4: H 4.2 | K 3.55 | F 3.12 | Y 3.03 | N 3.76 | C 3.52 | A 3.17 | M 2.32 | I 2.95 | P 3.51
E8: P 3.67 | C 3.64 | W 3 | D 3.81 | L 2.98 | G 3.66 | Y 3.46 | T 4.06 | K 3.95 | Q 3.71 | A 3.99
A15: G 4.12 | Q 2.39 | M 2.79 | R 3.15 | E 4.31 | V 3.69 | I 3.15 | P 4.2 | C 3.42
R16: Y 3.4 | L 4.25 | H 4.14 | G 4.46 | D 3.99 | V 3.17 | W 3.74 | I 3.7
A19: W 3.15 | F 3.08 | Y 2.92 | P 3.72 | H 4.33 | T 4 | C 4.22 | S 4.17 | D 4.37 | G 3.53 | N 4.08
L1: A 3.16 | V 3.64 | K 3.78 | H 3.96 | I 3.29 | F 3.22 | Y 3.76 | N 4.27 | G 4.14 | E 4.26 | M 4.24 | T 3.34
Q20: V 3.78 | P 4.32 | R 3.79 | G 3.52 | K 4.38 | H 3.77 | S 3.77 | M 2.88 | C 3.35 | I 3.47 | N 3.11 | A 3.61 | E 4.48 | Y 2.45

Variants of: B2
Experiment: as above
Details: c terminus: a fixed tail appended

Protein stability index: each site, then its substitutions
K12: H 4.71 | T 4.73 | Y 4.27 | F 3.15
Q1: C 4.3 | A 5.04 | T 4.6 | I 3.44 | F 3.89
I15: K 5.41 | M 5.08
I7: H 5.07 | V 5.62 | A 5.66 | P 5.83 | Y 5.46 | G 5.33 | S 5.69
Q5: H 3.64 | G 4.95 | K 4.7
D4: H 4.69
L3: F 4.87 | I 4.72 | D 5.72 | P 4.59
L9: Y 4.45 | V 5.26 | F 4.66 | S 5.21 | C 5
E16: Q 5.04 | P 4.69 | G 5.21
K20: H 4.48 | D 4.86 | R 5.18 | E 5.67
E18: Y 2.17 | I 2.58
V11: P 5.61 | W 5.5 | A 5.53
E6: N 5.24 | W 2.76
T13: M 3.65 | Y 4.14 | H 4.71 | G 4.06
E17: L 3.72 | A 4.57 | K 4.41 | W 3.51 | D 5.13 | Y 3.67
L19: H 4.97 | R 5.57 | Q 5.49 | I 4.65
K24: S 4.9 | D 5.27
E14: Q 4.84 | H 4.26 | G 5.05 | D 4.7
S21: H 4.44 | D 5.47 | K 4.83 | N 5.38 | F 4.72 | G 5.35
K10: I 3.21 | G 4.83
L8: Y 3.76 | R 5.71 | N 5.9
D23: F 2.14 | I 3.3 | T 4.47
L22: C 5.34 | W 4.34
S2: H 4.75 | T 5.16 | W 1.48
